{
  "source": "patent US6727407",
  "about": "(University of California, dated 2004)",
  "biological_target": "T1, GST-CCA1 (Arabidopsis thaliana, UniProt P92973 1-608)",
  "T1 construct": "Immobilized on glutathione-agarose beads; also called pGEX-CCA1 product; not shown: glutathione-S-transferase (GST) of pGEX-3X (Pharmacia)",
  "T1 sequence (P92973 whole entry)": "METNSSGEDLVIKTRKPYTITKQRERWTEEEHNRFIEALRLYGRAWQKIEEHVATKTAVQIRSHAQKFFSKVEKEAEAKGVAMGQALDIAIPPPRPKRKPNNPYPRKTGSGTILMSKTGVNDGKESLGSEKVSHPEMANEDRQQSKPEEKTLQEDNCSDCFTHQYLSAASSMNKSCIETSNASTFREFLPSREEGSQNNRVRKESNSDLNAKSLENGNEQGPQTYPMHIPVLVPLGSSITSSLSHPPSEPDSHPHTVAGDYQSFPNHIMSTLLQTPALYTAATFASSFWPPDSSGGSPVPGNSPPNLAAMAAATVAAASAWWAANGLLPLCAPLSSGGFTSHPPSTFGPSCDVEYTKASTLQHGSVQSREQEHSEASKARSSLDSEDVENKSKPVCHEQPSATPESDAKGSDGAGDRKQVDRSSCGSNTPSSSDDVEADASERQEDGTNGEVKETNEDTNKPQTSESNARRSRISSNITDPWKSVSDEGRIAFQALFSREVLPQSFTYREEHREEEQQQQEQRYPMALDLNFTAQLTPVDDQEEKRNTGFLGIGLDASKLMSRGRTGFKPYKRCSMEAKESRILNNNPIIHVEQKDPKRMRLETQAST",
  "experiment": "GST pull-down of 35S-labeled in vitro translated protein, SDS-PAGE autoradiography",
  "protocol": "CK2 subunits and GBF4 labeled with [^35S]methionine were synthesized by coupled transcription-translation with wheat germ extract (Promega TNT). For in vitro binding, 20 µl of the reactions were added to 200 µl of binding buffer [20 mM Hepes pH 7.6, 100 mM KCl, 10% glycerol, 5 mM EDTA, 0.02% NP40, 1 mM dithiothreitol (DTT), 5 mg/ml bovine serum albumin (BSA)] followed by 10 µl of glutathione-agarose beads with bound GST or GST-CCA1 and incubated at 4° C. The beads were washed with binding buffer, then with binding buffer without BSA. Bound proteins were eluted with 1X SDS-polyacrylamide gel electrophoresis (PAGE) sample buffer and resolved by 12.5% SDS-PAGE. ^35S-labeled bands were detected by autoradiography, and quantitation was performed with a PhosphorImager (Molecular Dynamics).",
  "data": [
    {"binder": "GBF4, a bZIP transcription factor (35S-labeled, in vitro translated) (other, UniProt P42777 1-270, looked up, [35S]methionine label, Negative control) MASFKLMSSSNSDLSRRNSSSASSSPSIRSSHHLRPNPHADHSRISFAYGGGVNDYTFASDSKPFEMAIDVDRSIGDRNSVNNGKSVDDVWKEIVSGEQKTIMMKEEEPEDIMTLEDFLAKAEMDEGASDEIDVKIPTERLNNDGSYTFDFPMQRHSSFQMVEGSMGGGVTRGKRGRVMMEAMDKAAAQRQKRMIKNRESAARSRERKQAYQVELETLAAKLEEENEQLLKEIEESTKERYKKLMEVLIPVDEKPRPPSRPLSRSHSLEW", "values": [
      {"measurement": "binding result", "result": "no binding"}
    ]}
  ]
}
